# Reference: US20240293509A1, “METHODS OF TREATING INFLAMMATORY BOWEL DISEASE” (UNIVERSITY OF PITTSBURGH - OF THE COMMONWEALTH SYSTEM OF …, priority 2021, published 2024)
# Assay: In vitro degradation of IL-2 in simulated gastric fluid
# Type: in vitro ADME
# Conditions: free IL-2, pH 2.0, 100 min, 37° C., ELISA
# Description: In silico and in vitro degradation of bioactive factors within the gastric environment. The in silico cytokine degradation was predicted using the Expasy PeptideCutter software package (E. Gasteiger et al., in The Proteomics Protocols Handbook, J. M. Walker, Ed. (Humana Press, Totowa, N J, 2005), pp. 571-607). In vitro degradation of IL-2 was measured in simulated gastric fluid (Ricca Chemical Company, Arlington, Texas) at pH 2.0. For the second set of the experimental conditions, pepsin (3.2 μg/L, Sigma) was also included. The samples were incubated for […] at 37° C. on a rocker and then neutralized before ELISA assay (R and D systems) for the soluble factors. For the MP containing factors, following treatment in the simulated gastric fluid the MPs were removed and washed multiple times with PBS supplemented with BSA and then incubated for 22 hours in PBS with 0.5% BSA. The released IL-2 was then quantitated with an ELISA excluding that which was released during the initial […] incubation in the simulated gastric fluid.
substance,measurement,value
"IL-2: recombinant IL-2 (murine, R&D Systems); in silico prediction on SEQ ID NO: 9",degradation in simulated gastric fluid containing pepsin,complete degradation
